T1: Biotin-huCGRPaSA (human, not fully specified; biotin (position not given))
T1 construct: exact construct ('aSA') not explained; also called Biotin CGRPaSA; full-length (1-37) CGRP
T1 peptide: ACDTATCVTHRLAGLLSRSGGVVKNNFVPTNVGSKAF

B1: hu220 (antibody, V domains shown)
VH: QVQLVQSGAEVKKPGASVKVSCKASGYTFTDYNMHWVRQAPGQGLEWMGYIYPYNGHTVYNQKFRNRVTLTVDTSSSTAYMELRSLRSDDTAVYYCAREGLGGYWGQGTLVTVSS
VL: DIVLTQSPDSLAVSLGERATINCKASQNIDYGGYSYMNWYQQKPGQPPKVLIYSVFNLESGVPDRFSGSGSGTDFTLTISSLQAEDVAVYYCQQSNEAPYTFGQGTKLEIK
notes: 3H10 HC-2/3H10 LC2-1
B2: hu210 (antibody, V domains shown)
VH: QVQLVQSGAEVKKPGASVKVSCKASGYTFTDYNMHWVRQAPGQGLEWMGYIYPYNGHTVYNQKFRNRVTLTVDTSSSTAYMELRSLRSDDTAVYYCAREGLGGYWGQGTLVTVSS
VL: DIVLTQSPASLAVSPGQRATITCKASQNIDYDGYAYLNWYQQKPGQPPKVLIYSVFNLESGVPARFSGSGSGTDFTLTINPVEADDTANYYCQQSNEFPYTFGQGTKLEIK
notes: 3H10 HC-2/1A2 LC2-2
B3: hu217 (antibody, V domains shown)
VH: QVQLVQSGAEVKKPGASVKVSCKASGYTFTDYNMHWVRQAPGQGLEWMGYIYPYNGHTVYNQKFRNRVTLTVDTSSSTAYMELRSLRSDDTAVYYCAREGLGGYWGQGTLVTVSS
VL: DIVLTQSPDSLAVSLGERATINCQASQNIDGNTYMNWYQQKPGQPPKVLIYSIFNLESGVPDRFSGSGSGTDFTLTISSLQAEDVAVYYCQQSNDYPYTFGQGTKLEIK
notes: 3H10 HC-2/2B8 LC2-1
B4: hu165 (antibody, V domains shown)
VH: QVQLVQSGAEVKKPGASVKVSCKASGYTFTDYNMHWVRQAPGQRLEWMGYISPYNGGTAYNQKFKFRVTLTVDTSSSTAYMELSSLRSEDTAVYYCAREGLGGYWGQGTLVTVSS
VL: DIVLTQSPDSLAVSLGERATINCQASQNIDGNTYMNWYQQKPGQPPKVLIYSIFNLESGVPDRFSGSGSGTDFTLTISSLQAEDVAVYYCQQSNDYPYTFGQGTKLEIK
notes: 3E5 HC-2/2B8 LC2-1
B5: hu139 (antibody, V domains shown)
VH: QVQLVQSGAEVKKPGASVKVSCKASGYTFTDYNMHWVRQAPGQGLEWMGNIYPYNAGTVYNQKFNNRVTLTVDTSSSTAYMELSRLRSDDTAVYYCAREGLGGYWGQGTLVTVSS
VL: DIVLTQSPDSLAVSLGERATINCQASQNIDGNTYMNWYQQKPGQPPKVLIYSIFNLESGVPDRFSGSGSGTDFTLTISSLQAEDVAVYYCQQSNDYPYTFGQGTKLEIK
notes: 2B8 HC1-3/2B8 LC2-1
B6: hu191 (antibody, V domains shown)
VH: QVQLVQSGAEVKKPGASVKVSCKTSGYTFTDYNMHWVRQAPGQRLEWMGYISPYNAGTAYNQKFKFRVTLTVDTSSSTAYMELSSLRSEDTAVYYCAREGLGGYWGQGTLVTVSS
VL: DIVLTQSPDSLAVSLGERATINCQASQNIDGNTYMNWYQQKPGQPPKVLIYSIFNLESGVPDRFSGSGSGTDFTLTISSLQAEDVAVYYCQQSNDYPYTFGQGTKLEIK
notes: 3E5 HC-4/2B8 LC2-1
B7: hu48 (antibody, V domains shown)
VH: QVQLVQSGAEVKKPGASVKVSCKASGYTFTDFNMHWVRQAPGQRLEWMGYIYPYNGDVVYNQNFTNRVTLTVDTSSSTAYMELSSLRSEDTAVYYCAREGLGGYWGQGTLVTVSS
VL: DIVLTQSPDSLAVSLGERATINCQASQNIDGNTYMNWYQQKPGQPPKVLIYSIFNLESGVPDRFSGSGSGTDFTLTISSLQAEDVAVYYCQQSNDYPYTFGQGTKLEIK
notes: 1F5 HC-2/2B8 LC2-1
B8: hu22 (antibody, V domains shown)
VH: QVQLVQSGAEVKKPGASVKVSCKASGYTFTDYNMHWVRQAPGQRLEWMGYIFPYNGVAVYNRKFRSRVTLTVDTSSSTAYMELSSLRSEDTAVYYCAREGLGGYWGQGTLVTVSS
VL: DIVLTQSPDSLAVSLGERATINCQASQNIDGNTYMNWYQQKPGQPPKVLIYSIFNLESGVPDRFSGSGSGTDFTLTISSLQAEDVAVYYCQQSNDYPYTFGQGTKLEIK
notes: 1B2 HC-2/2B8 LC2-1
B9: hu204 (antibody, V domains shown)
VH: QVQLVQSGAEVKKPGASVKVSCKASGYTFTDYNMHWVRQAPGQGLEWMGYIYPYNGHTVYNQKFRNRVTMTVDTSSSTAYMELRSLRSDDTAVYYCAKEGLGGYWGQGTLVTVSS
VL: DIVLTQSPDSLAVSLGERATINCQASQNIDGNTYMNWYQQKPGQPPKVLIYSIFNLESGVPDRFSGSGSGTDFTLTISSLQAEDVAVYYCQQSNDYPYTFGQGTKLEIK
notes: 3H10 HC-1/2B8 LC2-1
B10: hu35 (antibody, V domains shown)
VH: QVQLVQSGAEVKKPGASVKVSCKASGYTFIDFNMHWVRQAPGQRLEWMGYIYPYNGDVVYNQNFTNRVTLTVDTSSSTAYMELSSLRSEDTAVYYCAREGLGGYWGQGTLVTVSS
VL: DIVLTQSPDSLAVSLGERATINCQASQNIDGNTYMNWYQQKPGQPPKVLIYSIFNLESGVPDRFSGSGSGTDFTLTISSLQAEDVAVYYCQQSNDYPYTFGQGTKLEIK
notes: 1F5 HC-1/2B8 LC2-1
B11: hu9 (antibody, V domains shown)
VH: QVQLVQSGAEVKKPGASVKVSCKASGYTFTDYNMHWVRQAPGQGLEWMGYIFPYNGVAVYNRKFRSRVTLTIDTSSSTAYMELRSLRSDDTAVYYCAREGLGGYWGQGTLVTVSS
VL: DIVLTQSPDSLAVSLGERATINCQASQNIDGNTYMNWYQQKPGQPPKVLIYSIFNLESGVPDRFSGSGSGTDFTLTISSLQAEDVAVYYCQQSNDYPYTFGQGTKLEIK
notes: 1B2 HC-1/2B8 LC2-1
B12: hu61 (antibody, V domains shown)
VH: QVQLVQSGAEVKKPGASVKVSCKASGYTFTDFNMHWVRQAPGQGLEWMGYIYPYNGDVVYNQNFTNRVTLTVDTSSSTAYMELRSLRSDDTAVYYCAREGLGGYWGQGTLVTVSS
VL: DIVLTQSPDSLAVSLGERATINCQASQNIDGNTYMNWYQQKPGQPPKVLIYSIFNLESGVPDRFSGSGSGTDFTLTISSLQAEDVAVYYCQQSNDYPYTFGQGTKLEIK
notes: 1F5 HC-3/2B8 LC2-1
B13: hu1 (antibody, V domains shown)
VH: QVQLVQSGAEVKKPGASVKVSCKASGYTFTDYNMHWVRQAPGQGLEWMGYIFPYNGVAVYNRKFRSRVTLTIDTSSSTAYMELRSLRSDDTAVYYCAREGLGGYWGQGTLVTVSS
VL: DIVLTQSPASLAVSPGQRATITCKASQNIDYDGYAYLNWYQQKPGQPPKVLIYSVFNLESGVPARFSGSGSGTDFTLTINPVEANDTANYYCQQSNEFPYTFGQGTKLEIK
notes: 1B2 HC-1/1A2 LC2-1
B14: hu7 (antibody, V domains shown)
VH: QVQLVQSGAEVKKPGASVKVSCKASGYTFTDYNMHWVRQAPGQGLEWMGYIFPYNGVAVYNRKFRSRVTLTIDTSSSTAYMELRSLRSDDTAVYYCAREGLGGYWGQGTLVTVSS
VL: DIVLTQSPASLAVSPGQRATITCKASQNIDFDGYAYMNWYQQKPGQPPKVLIYSVFNLESGVPARFSGSGSGTDFTLTINPVEADDTANYYCQQSHEVPYTFGQGTKLEIK
notes: 1B2 HC-1/1F5 LC1-3
B15: hu126 (antibody, V domains shown)
VH: QVQLVQSGAEVKKPGASVKVSCKASGYTFTDYNMHWVRQAPGQGLEWMGNIYPYNGGTVYNQKFNNRVTLTVDTSSSTAYMELRSLRSDDTAVYYCAREGLGGYWGQGTLVTVSS
VL: DIVLTQSPDSLAVSLGERATINCQASQNIDGNTYMNWYQQKPGQPPKVLIYSIFNLESGVPDRFSGSGSGTDFTLTISSLQAEDVAVYYCQQSNDYPYTFGQGTKLEIK
notes: 2B8 HC1-2/2B8 LC2-1
B16: hu152 (antibody, V domains shown)
VH: QVQLVQSGAEVKKPGASVKVSCKTSGYTFTDYNMHWVRQAPGQRLEWMGYISPYNGGTAYNQKFKFRVTLTVDTSSSTAYMELSSLRSEDTAVYYCAREGLGGYWGQGTLVTVSS
VL: DIVLTQSPDSLAVSLGERATINCQASQNIDGNTYMNWYQQKPGQPPKVLIYSIFNLESGVPDRFSGSGSGTDFTLTISSLQAEDVAVYYCQQSNDYPYTFGQGTKLEIK
notes: 3E5 HC-1/2B8 LC2-1
B17: hu178 (antibody, V domains shown)
VH: QVQLVQSGAEVKKPGASVKVSCKASGYTFTDYNMHWVRQAPGQGLEWMGYISPYNGGTAYNQKFKFRVTLTVDTSSSTAYMELSRLRSDDTVVYYCAREGLGGYWGQGTLVTVSS
VL: DIVLTQSPDSLAVSLGERATINCQASQNIDGNTYMNWYQQKPGQPPKVLIYSIFNLESGVPDRFSGSGSGTDFTLTISSLQAEDVAVYYCQQSNDYPYTFGQGTKLEIK
notes: 3E5 HC-3/2B8 LC2-1
B18: hu113 (antibody, V domains shown)
VH: QVQLVQSGAEVKKPGASVKVSCKASGYTFTDYNMHWVRQAPGQGLEWMGNIYPYNGGTVYNQKFNNRVTLTVDTSSSTAYMELSRLRSDDTAVYYCAREGLGGYWGQGTLVTVSS
VL: DIVLTQSPDSLAVSLGERATINCQASQNIDGNTYMNWYQQKPGQPPKVLIYSIFNLESGVPDRFSGSGSGTDFTLTISSLQAEDVAVYYCQQSNDYPYTFGQGTKLEIK
notes: 2B8 HC1-1/2B8 LC2-1
B19: hu2 (antibody, V domains shown)
VH: QVQLVQSGAEVKKPGASVKVSCKASGYTFTDYNMHWVRQAPGQGLEWMGYIFPYNGVAVYNRKFRSRVTLTIDTSSSTAYMELRSLRSDDTAVYYCAREGLGGYWGQGTLVTVSS
VL: DIVLTQSPASLAVSPGQRATITCKASQNIDYDGYAYLNWYQQKPGQPPKVLIYSVFNLESGVPARFSGSGSGTDFTLTINPVEADDTANYYCQQSNEFPYTFGQGTKLEIK
notes: 1B2 HC-1/1A2 LC2-2

Target: T1, Biotin-huCGRPaSA
Experiment: ELISA, supernatant; relative to chimeric C245
Method: Biotin CGRPaSA was diluted with PBS (Hyclone) to 1.0 μg/mL, and the dilution was added to a microplate at 100 μL/well. The plate was let stand in an incubator at 37° C. and coated for 90 min and then washed, and 2% BSA was added to the plate at 200 μL/well. The plate was incubated in an incubator at 37° C. for 90 min and then washed. The humanized antibodies in Table 8 and the reference antibody (chimeric antibody C245) were diluted to 1000 ng/mL with a diluent (2% BSA) with a dilution factor of not more than 10. Then, the chimeric antibodies and the reference antibody were serially 2.5-fold diluted on a sample dilution plate. All the chimeric antibody solutions and the reference antibody solution were added into plates at 100 μL/well, and the plates were incubated in a thermostat incubator at 37° C. for 60 min and washed. An HRP-conjugated goat anti-human antibody IgG (manufacturer: Sigma, Cat. No. A0170; Fc specificity) was diluted 5000-fold with 2% BSA and added into the plates at 100 μL/well, and the plates were incubated in the thermostat incubator at 37° C. for 60 min and washed. Chromogenic reagent TMB was carefully added at 100 μL/well to avoid bubbles, and the system was incubated at 37° C. for 15 min away from light for chromogenic reaction. Finally, a 2 M hydrochloric acid solution was added at 100 μL/well to stop the reaction while avoiding bubbles, and the plates were read on a microplate reader within 10 min (wavelength: 450/620 nm).

**Q.** For B1, which “Relative binding activity, %” value is on record?
**A.** 83%

**Q.** B2 was tested. Which “Relative binding activity, %” value did it give?
**A.** 73%

**Q.** How did the “Relative binding activity, %” value turn out when B3 was run?
**A.** 73%

**Q.** Which “Relative binding activity, %” value does the source give for B4 here?
**A.** 87%

**Q.** Which “Relative binding activity, %” value does the source give for B5 here?
**A.** 84%

**Q.** Which “Relative binding activity, %” value does the source give for B6 here?
**A.** 68%

**Q.** Which “Relative binding activity, %” value does the source give for B7 here?
**A.** 40%

**Q.** For B8, which “Relative binding activity, %” value is on record?
**A.** 76%

**Q.** With B9 as the binder, how does the “Relative binding activity, %” value read?
**A.** 68%

**Q.** How did the “Relative binding activity, %” value turn out when B10 was run?
**A.** 65%

**Q.** With B11 as the binder, how does the “Relative binding activity, %” value read?
**A.** 45%

**Q.** How did the “Relative binding activity, %” value turn out when B12 was run?
**A.** 56%

**Q.** For B13, which “Relative binding activity, %” value is on record?
**A.** 58%

**Q.** With B14 as the binder, how does the “Relative binding activity, %” value read?
**A.** 80%

**Q.** With B15 as the binder, how does the “Relative binding activity, %” value read?
**A.** 79%

**Q.** With B16 as the binder, how does the “Relative binding activity, %” value read?
**A.** 109%

**Q.** For B17, which “Relative binding activity, %” value is on record?
**A.** 65%

**Q.** How did the “Relative binding activity, %” value turn out when B18 was run?
**A.** 44%

**Q.** B19 was tested. Which “Relative binding activity, %” value did it give?
**A.** 64%

Source: US20260125454A1 (SHANGHAI JUNSHI BIOSCIENCES, published 2026)
